Experimental data published in the nanobody polyreactivity screen of Harvey et al. (2022).

Test: yeast display, Sf9 membrane polyspecificity reagent, FACS + sequencing; frameworks hold sequencing errors
In short: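 Synthetic nanobody libraries on Saccharomyces cerevisiae BJ5465 were galactose-induced for 36–48 hours, stained 1 hour at 4 °C with 10% biotinylated, detergent-solubilized Sf9 membrane reagent and enriched on streptavidin microbeads. FACS then separated cells into low and high (top ~1%) gates by anti-HA (expression) and streptavidin (reagent binding) fluorescence. Genes were colony-PCR amplified, MiSeq 2 × 250 sequenced and CDR-length filtered. A clone's polyreactivity label is that of its gate of origin.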

| Sequence | polyreactivity (PSR sort gate) |
| --- | --- |
| QVQLVESGGGLVQAGGCLRKSCAASGFTFFSYARGWSRQAPGKERELVAGINSSGGSTNYADSVKGRFTISRDNAKNTVYLLMNSLKPEDTAVYYCNADLRSEYDYWGQGTQVTVSS | low polyreactivity |
| QVQLVESGGGLVQAGGSLRLSCAASGNIFKHYAMGWYRQAPGKERELVAAITWSGGSTHYADSVKGRFTISRDNAKNTVYFQMNSLKPEDTAVSYCAARGWWPGTKWTRYDYWGQGTQVTVSS | high polyreactivity |
| QVQLVESGGGLVQAGGSLRLSCAASGFTFPIYAMGLSRQAPGKERELVAAITTPGGRTYYADSVKGRFTISRDNAKNPVYLQLNSLKPEDTAVYYCNAQGYAYRLWFGYWGQGTQVTVSS | high polyreactivity |
| QVQLVESGGGLVQAGGSLRLSCAASGLTFGNYAMGSYRQAPGKERELVAAITSGGSTYYADSVKGRFTISRDNAKNTVYLQMNSLKPEDTAVYYCAKRQSQHYRSYLMDYWGQGTQVTVSS | low polyreactivity |
| QVQLVESGGGLVQAGASLRLSCAASGRIFGVYAMGWYRQAPGKDRELVAGINGGDSTYYADSVKGRFTISRDNAKNTVYLQINSLKPEDTAVYYCAAQADESGSNYDYWGQGTQVTVSS | low polyreactivity |
| QVQLVESGVGLVQAGGSLRLSCAASGFIFPYYTMGWYRQAPGKERELVAAISASSGRTYYADSVKGRFTISSDNAKNTVYLQMNSLKPEDTAVYYCAAKTYEPRKYEYWGQGTQVTVSS | high polyreactivity |
| QVQLVESGGGLVQAGGSLRLSCAASGRIFGGYEMGWYRQAPGKERELVAAITSDSSTTYADSVKGRFTISRDNAKNTVYLQMNSLKPEDTAVYYCAVQVNGPVFYRPYRDYDYWGQGTQVTVSS | low polyreactivity |
| QVQLQESGGGLVQAGGSLRMSCAASGNIFDADIMGWYRQAPGKERELVASITDGRRTNYADSVKGRYTISRDSEKNTVYLQMNSLKPEDTAVYYCAAIAYPVVPTYFDYDSDYFHWGQGTQVTVIS | high polyreactivity |
| QVQLVESGGGLVQAGGRLRLSCAASGSTFQRYAMGWYRQAPGKDRELVAAISSTGGSTFYADSVKGRFTISRDTAKNTVYLHMNSLKPEDTAVYYCNKYRATNSARDYWGQGTQVTVSS | high polyreactivity |
| QVQLGESRGGLVQAGGSLRLSCAASGTFAYKTIGWYRQAPGKEREWVAAITSSGGSTYYADSVKGRFTISRDNAKNTVYVLMNSLKPEDTAVYYCDKGSTWYYRKYDYWGQGTQVTVSS | high polyreactivity |
| QVQLVESGGGLVQAGGSLRLSCAASGSILFKNAMGWYRQAPGKERELVAAISTSGGRTYYADSVKGRFTISRDNAKNTVYLEMNSLKPEDTAVYYCAAVYPRQVSQVWRDDYWGQGTQVTVSS | high polyreactivity |
| QVQLVESGGGLVQAGGSLRLSCAASGRPFVGNVMGWYRQAPGKERELVDAITRTAGSTYYADSVKGRFTISRDNAKNTVYLEMNSLKPEDTAVDYCAVEGIYRWYDYSWYYTSTYDYWGQGTQVTVSS | low polyreactivity |
| QVQLVESGGGLVQAGGSLRLSCAASGYTFRYYVMGWYRQAPGKERELDAAISQRGGSTYYADSVKGRFTISRDNAKNTVYLQMNSLKPEDTAVYYCAASYSTYASRGYGYWGQGTQVTVSS | high polyreactivity |
| QVQLLESGGGLVQAGGSLRLSCAASGFTFLQYAMGWYRQAPGKERELVAAISWSGSRTYYADSVKGRFTISRDNAKNTVYLQMNSLKPEETAVYYCAAVYGGLTLTRNYYWGQGTQVTVSS | high polyreactivity |
| QVQLVESGGGLVQAGGSLRLSCAASGSTFLRNAMGWYRQAPGKEWELVATISTGSGRTYYADSVKGRFTISRDNAKNTVYLQMHSLKPEDTAVYYCAASRTLRKHRYEYWGQGTQVTVSS | high polyreactivity |
| QVQLVESGGCLVQAGGSLRLSCAASGSTFAEYVMGWDRQAPGKERELVAAISSGTSTYYADSVKGRFTISRDNAKNTVYLQMNSLKPEDTAVYYCNADLYHNWYKPEYDYCGQGTQVTVSS | low polyreactivity |

| Sequence | polyreactivity (PSR sort gate) |
| --- | --- |
| QVQLVESRGGLVQAGGSLRLSCADSGRIFWYYDMGCYRQAPWKDRELVAAITSGGRTYYADYVKGRFTISRDNAKNTVYLQMNSLKPEDTAVYYCAAEGFYTSGSPYSGGLDYWGQGTQVTVSS | low polyreactivity |
| QVQLVESGGGLVQAGGSLRLSCAASGGISDVYAMGWYRQAPGKERELVAAINWSGGSTYYADSVKGRFTISRDNAKNTVYLQMNSLKPEDTAVYYCAADPGIIGTFDWYDYWGQGTQVTVSS | low polyreactivity |
| QVQLGESAGGLVQAGGSLRLSCAATGRTFRWYTMGWYRQAPGKERELVAGIRSTGGSTYYADSVKGRFTISRDNAKNTVYLQMNSLKPEDTEVYYCAIVTLTSRYASYYYWGQGTQVTVSS | high polyreactivity |
| QVQLVESGGGLVQAGGSLRLSCAASGLTFYYYVMGWYRQAPGKERELVAAISYSGGRTYYADSVKGRFTISRDNAKNTVSLQMNSLKPEDTAVYYCAAQSRYGGKFYYWGQGTQVTVSS | high polyreactivity |
| QVQLVESGGGLVQAGGSLRLSCAASGRIFWSYAMGWYRQAPGKERELVAAITWRTGRTYYADSVKGRFTISRDNAKNTVYLQMNSLKPEDTAVYYCAAEGYLWGQSYNGLNYDSWGQGTQVTVSS | low polyreactivity |
| QVQLVESGGGLVQAGGSLRLSCAASGIICWWNTMGWYRQAPGKERELVATITRGGSTYYADSVKGRFTISRDNAKNTVYLQMNSLKPEDTAVYYCNAVQYKYLAKSYDYWGQGTQVTVSS | low polyreactivity |
| QVQLVESGGGLVQAGGSLRLSCGASGRTFQFYAMGWYRQAPGKERELVAAISRSSGSTTYADSVKGRFTISRDNAKNTVYLQMNSLKPEDTAVYYCAARRKGKARVPQYDYWGQGTQVTVSS | high polyreactivity |
| QVQLVESGGGLVQPGGSLRLSCAASGFIFPSYDMGWYIQAPGKERELVAAITSDVNSYYADSVKGRFTISRDNAKNTVYLQMTSLKPEDTAFYSCNADADDYRDYQDYDYWGQGTQVTVSS | low polyreactivity |
| QVQLVESGGGLVQAGGSLRLSCAASGSIFVNNAMGLYRQAPGKERELVAAISSRSSRTFYADSVKGRFTISRDYAKNTVYLQMNSLKPEDTAVYYCAAELYGLKYGYYLSYDYWGQGTQVTVSS | high polyreactivity |
| QVQLVESAGVLVQAGGILRLSFAASGINFPYYAMGWYRKAPGKERELVAAISSSGGSSYYADSVKGRFTISRDNAKNTVYLKLNILKPEDTAVYYCAAHRYINYEYWGQGTQLTVSS | high polyreactivity |
| QVQLVESGGGLVQAGGSLRLICAASGTIFITNAMGWYRPAPGKERELVAAISGRGGSTYYADSVKGRFTISRDNAKNTVYLQMNSLKPEDTAVYYCNAYSYRVSGYDYWGQGTQVTVSS | high polyreactivity |
| QVQLVESGGGLVQAGGSLRLSCAASGYISDTNAMGWYRQAPGKEREFVAVISSSVGSTYYADSVKGRFTISRDNAKNTVYLQMNSLKPEDTAVYYCNAEFNTVFLYWSLDSVRGYDYWGQGTQVTVSS | high polyreactivity |
| HVQLVESGGGLVQAGARLRLSCAASGITFFYYAMGWYRQAPGKERELVAAINWSGRTYYADSVKGRFTISRDNAKNTVYLQMNSLKPEDTAVDYCAAVTYGPGVSGMDYWGQGTQVTVSS | low polyreactivity |
| QVQLVESGGGLVQAGGSLRLSCAASGRTFVPYAMGWYRQAPGKERELVASITWRGGRTYYADSVKGRFTISRDNAKNTVYLQMNSLKPEDTAVYYCAAVGGYASYFHLYYYWGQGTQVTVSS | high polyreactivity |
| QVQLVESGGGLVQAGGSLRLSCAASGRTFYWYVMGWYRQAPGKERELVAAITQTGSSTYYADSVKGRFTISRDNAKNTVYLQMNSLKPEDTAVYYCADRLSRNHYEVDYWGQGTQVTVSS | low polyreactivity |
